This experiment has as its target 新型冠状病毒SARS-CoV-2和SARS-CoV以及动物来源的SARS-like冠状病毒S1. Put plainly: ELISA, S1 proteins coated at 2 μg/mL, antibody titrated from 10 μg/mL.

B1: 全人源广谱抗sarbecovirus和/或新冠突变株的抗体(VSCM8-83) (antibody, V domains shown)
VH: EVQLVEFGGGLVQPGGSLRLSCAASGFAVSSNYMSWVRQAPGKGLEWVSVIYGDGTTYYGDSVKGRFTISRHNSKNTLYLQMNSLRTEDTAVYYCARIVSEAFDLWGQGTMVTVSS
VL: DIQMTQSPSTLSASVGDRVTITCRASQSIGRWLAWYQQKPGKAPKLLIYMASILESGVPSRFSGSGSATEFTLTISSLQPDDFATYYCQQYNGYSQYTFGQGTKLEIKR
As for B1, the concentration for a half-maximal effect (EC50) fell in the range of 0.0397 to 0.0749 µg/mL.
